What follows are binders tested against T1, recombinant extracellular domain of CD38 (human, UniProt P28907 43-300) (assay: Biacore SPR).
T1 construct: also called CD38 extracellular domain; AtaGenix ATMP00140HU

Row | Binder | Kd [nM] | koff [s⁻¹] | kon [M⁻¹ s⁻¹]
1 | FTL004-hu-8 (antibody, human IgG1, kappa, V domains shown, also called FLT004-hu-8; FTL004-hum-8) VH: QVQLVQSGAEVKKPGASVKVSCKASGYTFTDYNVHWIRQAPGQGLEWIGYFYPRNGATHYAQKFQGRVTMTVDTSTSTAYMELSSLRSEDTAVYYCARGETPGTFPYWGQGTLVTVSS VL: DIVLTQSPASLAVSPGQRATITCRASESVDNFGITFMHWYQQKPGQPPKLLIYRASNLESGVPARFSGSGSRTDFTLTINPVEANDTANYYCQQSSKDPRTFGQGTKLEIKR | 8.39 | 0.00257 | 307000
2 | FTL004-hu-11 (antibody, human IgG1, kappa, V domains shown, also called FLT004-hu-11; FTL004-hum-11) VH: QVQLVQSGAEVKKPGASVKVSCKASGYTFTDYNVHWIRQAPGQGLEWIGYFYPRNGATHYNQKFTGRATLTVDTSTSTAYMEISSLRSEDTAVYFCARGETPGTFPYWGQGTLVTVSS VL: DIQLTQSPSSLSASVGDRVTITCRASESVDNFGITFMHWYQQKPGKAPKLLIYRASNLESGVPSRFSGSGSRTDFTLTISSLQPEDFATYYCQQSSKDPRTFGQGTKLEIKR | 2.87 | 0.000848 | 296000
3 | FTL004-hu-2 (antibody, human IgG1, kappa, V domains shown, also called FLT004-hu-2; FTL004-hum-2) VH: QVQLVQSGSELKKPGASVKVSCKASGYTFTDYNVHWIRQAPGQGLEWIGYFYPRNGATHYAQGFTGRAVLSADTSVSTAYLQISSLKAEDTAVYYCARGETPGTFPYWGQGTLVTVSS VL: DIVLTQSPASLAVSPGQRATITCRASESVDNFGITFMHWYQQKPGQPPKLLIYRASNLESGVPARFSGSGSRTDFTLTINPVEANDTANYYCQQSSKDPRTFGQGTKLEIKR | 8.3 | 0.00285 | 344000
4 | FTL004-hu-9 (antibody, human IgG1, kappa, V domains shown, also called FLT004-hu-9; FTL004-hum-9) VH: QVQLVQSGAEVKKPGASVKVSCKASGYTFTDYNVHWIRQAPGQGLEWIGYFYPRNGATHYNQKFTGRATLTVDTSTSTAYMEISSLRSEDTAVYFCARGETPGTFPYWGQGTLVTVSS VL: EIVLTQSPATLSLSPGERATLSCRASESVDNFGITFMHWYQQKPGQAPRLLIYRASNLESGIPARFSGSGSRTDFTLTISSLEPEDFAVYYCQQSSKDPRTFGQGTKLEIKR | 3.04 | 0.000699 | 230000
5 | FTL004-hu-16 (antibody, human IgG1, kappa, V domains shown, also called FLT004-hu-16; FTL004-hum-16) VH: EVQLVQSGAEVKKPGATVKISCKASGYTFTDYNVHWIQQAPGKGLEWIGYFYPRNGATHYAEKFQGRVTLTADTSTDTAYMELSSLRSEDTAVYYCARGETPGTFPYWGQGTLVTVSS VL: EIVLTQSPATLSLSPGERATLSCRASESVDNFGITFMHWYQQKPGQAPRLLIYRASNLESGIPARFSGSGSRTDFTLTISSLEPEDFAVYYCQQSSKDPRTFGQGTKLEIKR | 25.2 | 0.00459 | 182000
6 | FTL004-hu-12 (antibody, human IgG1, kappa, V domains shown, also called FLT004-hu-12; FTL004-hum-12) VH: QVQLVQSGAEVKKPGASVKVSCKASGYTFTDYNVHWIRQAPGQGLEWIGYFYPRNGATHYNQKFTGRATLTVDTSTSTAYMEISSLRSEDTAVYFCARGETPGTFPYWGQGTLVTVSS VL: DIQLTQSPSSLSASVGDRVTITCQASESVDNFGITFMHWYQQKPGKAPKLLIYRASNLETGVPSRFSGSGSRTDFTFTISSLQPEDIATYYCQQSSKDPRTFGQGTKLEIKR | 3.54 | 0.00083 | 234000
7 | FTL004-hu-3 (antibody, human IgG1, kappa, V domains shown, also called FLT004-hu-3; FTL004-hum-3) VH: QVQLVQSGSELKKPGASVKVSCKASGYTFTDYNVHWIRQAPGQGLEWIGYFYPRNGATHYNQKFTGRAVLSADTSVSTAYLQISSLKAEDTAVYFCARGETPGTFPYWGQGTLVTVSS VL: EIVLTQSPATLSLSPGERATLSCRASESVDNFGITFMHWYQQKPGQAPRLLIYRASNLESGIPARFSGSGSRTDFTLTISSLEPEDFAVYYCQQSSKDPRTFGQGTKLEIKR | 1.5 | 0.00052 | 347000
8 | FTL004-hu-5 (antibody, human IgG1, kappa, V domains shown, also called FLT004-hu-5; FTL004-hum-5) VH: QVQLVQSGSELKKPGASVKVSCKASGYTFTDYNVHWIRQAPGQGLEWIGYFYPRNGATHYNQKFTGRAVLSADTSVSTAYLQISSLKAEDTAVYFCARGETPGTFPYWGQGTLVTVSS VL: DIQLTQSPSSLSASVGDRVTITCRASESVDNFGITFMHWYQQKPGKAPKLLIYRASNLESGVPSRFSGSGSRTDFTLTISSLQPEDFATYYCQQSSKDPRTFGQGTKLEIKR | 1.65 | 0.000686 | 415000
9 | FTL004-hu-17 (antibody, human IgG1, kappa, V domains shown, also called FLT004-hu-17; FTL004-hum-17) VH: EVQLVQSGAEVKKPGATVKISCKASGYTFTDYNVHWIQQAPGKGLEWIGYFYPRNGATHYNQKFTGRATLTADTSTDTAYMEISSLRSEDTAVYFCARGETPGTFPYWGQGTLVTVSS VL: DIQLTQSPSSLSASVGDRVTITCRASESVDNFGITFMHWYQQKPGKAPKLLIYRASNLESGVPSRFSGSGSRTDFTLTISSLQPEDFATYYCQQSSKDPRTFGQGTKLEIKR | 3.09 | 0.000848 | 275000
10 | FTL004-hu-13 (antibody, human IgG1, kappa, V domains shown, also called FLT004-hu-13; FTL004-hum-13) VH: EVQLVQSGAEVKKPGATVKISCKASGYTFTDYNVHWIQQAPGKGLEWIGYFYPRNGATHYNQKFTGRATLTADTSTDTAYMEISSLRSEDTAVYFCARGETPGTFPYWGQGTLVTVSS VL: DIVLTQSPASLAVSPGQRATITCRASESVDNFGITFMHWYQQKPGQPPKLLIYRASNLESGVPARFSGSGSRTDFTLTINPVEANDTANYYCQQSSKDPRTFGQGTKLEIKR | 2.78 | 0.000853 | 307000
11 | FTL004-hu-15 (antibody, human IgG1, kappa, V domains shown, also called FLT004-hu-15; FTL004-hum-15) VH: EVQLVQSGAEVKKPGATVKISCKASGYTFTDYNVHWIQQAPGKGLEWIGYFYPRNGATHYNQKFTGRATLTADTSTDTAYMEISSLRSEDTAVYFCARGETPGTFPYWGQGTLVTVSS VL: EIVLTQSPATLSLSPGERATLSCRASESVDNFGITFMHWYQQKPGQAPRLLIYRASNLESGIPARFSGSGSRTDFTLTISSLEPEDFAVYYCQQSSKDPRTFGQGTKLEIKR | 3.66 | 0.000784 | 214000
12 | FTL004-hu-18 (antibody, human IgG1, kappa, V domains shown, also called FLT004-hu-18; FTL004-hum-18) VH: EVQLVQSGAEVKKPGATVKISCKASGYTFTDYNVHWIQQAPGKGLEWIGYFYPRNGATHYNQKFTGRATLTADTSTDTAYMEISSLRSEDTAVYFCARGETPGTFPYWGQGTLVTVSS VL: DIQLTQSPSSLSASVGDRVTITCQASESVDNFGITFMHWYQQKPGKAPKLLIYRASNLETGVPSRFSGSGSRTDFTFTISSLQPEDIATYYCQQSSKDPRTFGQGTKLEIKR | 4.16 | 0.000788 | 189000
13 | FTL004-hu-4 (antibody, human IgG1, kappa, V domains shown, also called FLT004-hu-4; FTL004-hum-4) VH: QVQLVQSGSELKKPGASVKVSCKASGYTFTDYNVHWIRQAPGQGLEWIGYFYPRNGATHYAQGFTGRAVLSADTSVSTAYLQISSLKAEDTAVYYCARGETPGTFPYWGQGTLVTVSS VL: EIVLTQSPATLSLSPGERATLSCRASESVDNFGITFMHWYQQKPGQAPRLLIYRASNLESGIPARFSGSGSRTDFTLTISSLEPEDFAVYYCQQSSKDPRTFGQGTKLEIKR | 10.5 | 0.00313 | 297000

These binders were tested against CD38 on CD38-positive cells (human, UniProt P28907 1-300) (assay: cell-based or functional assay).

Row | Binder | Rate of apoptosis (%), Daudi cells [%] | Rate of apoptosis (%), Raji cells [%] | Rate of apoptosis (%), Romas cells [%] | Rate of apoptosis (%), SU-DHL-6 cells [%]
14 | FTL004-6 (antibody, human IgG1, kappa) heavy: not shown light: DIQLTQSPSSLSASVGDRVTITCQASESVDNFGITFMHWYQQKPGKAPKLLIYRASNLETGVPSRFSGSGSRTDFTFTISSLQPEDIATYYCQQSSKDPRTFGQGTKLEIKRTVAAPSVFIFPPSDEQLKSGTASVVCLLNNFYPREAKVQWKVDNALQSGNSQESVTEQDSKDSTYSLSSTLTLSKADYEKHKVYACEVTHQGLSSPVTKSFNRGEC | 36 | 13.9 | 57 | 15.1
